Assays:
MS2 coat protein [1] = assay: apparent KD of MS2 coat protein, switch ON state; designed switch direction (-1 OFF switch, 1 ON switch): -1; higher = weaker reporter binding; details: FMN input: 0 or 200 uM; Eterna round: R93 (includes R88 designs)
In short: (§1)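 Normalised binding curves from single clusters were fitted, and the median fit for each design is given as apparent KD. The clusters held designed RNA switches transcribed on-chip from Illumina sequencing clusters. These were titrated with SNAP-549-labelled MS2 coat protein (twofold steps from 0.7 or 1.5 nM to 3 µM, 0.8–1.5 h to 10–20 min per step) in 100 mM Tris-HCl pH 7.5, 80 mM KCl, 4 mM MgCl2, without or with constant ligand.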

MS2 coat protein [2] = assay: apparent KD of MS2 coat protein, switch OFF state (with FMN for OFF switches, without FMN for ON switches); designed switch direction (-1 OFF switch, 1 ON switch): -1; higher = weaker reporter binding; details: FMN input: 0 or 200 uM; Eterna round: R93 (includes R88 designs)
In short: as §1

Sequence	apparent KD of MS2 coat protein (MS2 coat protein [1]) [nM]	apparent KD of MS2 coat protein (MS2 coat protein [2]) [nM]
AGUAUGCGAGGAUAUACAUGAGGAUCACCCAUGUGAGAGAUAAGUGUGAGAAAGACAUGUAGAAGGCGCGUACA [JL Lego Mod 28]	146	35.1
AGUCAGAGAGGAUAUACAUGAAAAAAAAAAGUUAGAUCCCUACAUGAGGAUCACCCAUGUAGAAGGCUCUGACA [Ex2 Design 151: Sub-opt 15]	57.8	27
AGUCAUACAGGAUAUACAUGAGGAUCACCCAUGUAUAUCCAAAAAAGGUGAUCCUCAUGUAGAAGGGUAUGACA [EX3 202: Super Stable 2]	13.7	26.9
AGUCCAGAAGGAUAUACAUAGGUGAUAAAAAAAAAAAAACUACAUGAGGAUCACCCAUGUAGAAGGUCUGGACA [Brourd - Exclusion 2 - Sub 3]	37.8	24.5
AGUUGGCGAGGAUAUACAUGAGGAUCACCCAUGUAAAAUAAAUAAAAAAAGGGAGAAAGUAGAAGGCGCUGACA [73%, Moding Norbert Elias, 12]	56.2	193
AGUUGGCGAGGAUAUACAUGAGGAUCACCCAUGUAAAAUAAAUAAAAAAUAAAGGGAAGUAGAAGGCGCUGACA [73%, Moding Norbert Elias, 15]	41.8	77
AGUUGGCGAGGAUAUACAUGAGGAUCACCCAUGUAAAAUAAAUAAAAAGGGAAAGAAAGUAGAAGGCGCUGACA [73%, Moding Norbert Elias, 10]	42.4	83.3
AGUUGGCGAGGAUAUACAUGAGGAUCACCCAUGUAAAAUAAUGAAAAAGUAGGGAAAAGUAGAAGGCGCUGACA [73%, Moding Norbert Elias, 19]	36.2	96.7
AGUUGGCGAGGAUAUACAUGAGGAUCACCCAUGUGAGAGAAAAACUCGAAAGAGAAAAGUAGAAGGCGCUGACA [73%, Moding Norbert Elias, 6]	19.3	82.2
AUAAAGUAAGGAUAUGCGAAUAAAUAAGUAGACGAAUGAAAGCAGAAGGUACAUGAGGAUCACCCAUGUAAGAA [Ex 4 Tesla 2]	30.3	19
AUAAUGAGAGGAUAUACAUGAGGAUCACCCAUGUAAUUAACACGGCGAGCACCAAUACGUAGAAGGCUCAUUUA [JR_Exc003+Sub602]	22.4	49.9
AUAAUGUGAGGAUAUACAUGAGGAUCACCCAUGUAAUUAAAAAGGAGAGAAACAAUACGUAGAAGGUACAUUUA [JR_Exc003_Sub510]	26.7	29
AUAGGCCUAGGAUAUACAUGAGGAUCACCCAUGUAAACAGAUAGAUCAAGGUAAACGAGUAGAAGGAGGAAUAA [JR_Exc003_Sub209]	22	17.8
AUAGGUCGAGGAUAUACAUGAGGAUCACCCAUGUAAAUAAAUAAAUAAAACUCCACAAGUAGAAGGCGAAAUAA [JR_Exc003_Sub201]	28.1	22.6
AUAGUAGGAGGAUAUACAUAGAUACAGAUACAUGUAGACGUACAUGAGGAUCACCCAUGUAGAAGGCCUAUGAA [Mat - Same state - Mayanna Mod - D149]	126	116
AUCUAGUCAGGAUAUCGAUGAAAUGAAGUGAAAGAAAAGAACGAGAAGGGACAUGAGGAUCACCCAUGUUAGAA [EteRNA is fun!]	31.2	18.8
AUCUUGUGAGGAUAUGCAUGAAAUGAAGUGAAAGAAAAGAAGCAGAAGGCACAUGAGGAUCACCCAUGUUAGAA [EteRNA is fun!]	33.5	62.2
AUUAUGUAAGGAUAUGAGUGAACAACAAAACAAAUAACGACUCAGAAGGUACAUGAGGAUCACCCAUGUAUAAA [May 70]	28.9	21
CAAAGGUGAGGAUAUACAUAACUAUGACGAAAGUCAUAAACACAUGAGGAUCACCCAUGUAGAAGGCACCACAA [e2]	32.6	29.9
CAGUACUGAGGAUAUACAUGAGGAUCACCCAUGUAAAAAACCUACGAAAGUAGGAAAUGUAGAAGGCAGUACUG [Ex3: 803]	16.4	22.2
CAUAAGCAAGGAUAUACAUGAGGAUCACCCAUGUAGCUUUGCUUCGUGGGCACAACAUGUAGAAGGUGCGAAAA [Leceedon]	15	13.9
CCACAGGUAGGAUAUGCUGGGUGGGAUAAAUAAUUCCUGUGACAUGAGGAUCACCCAUGUAGAAGGACCAAAAG [Rixela]	22.9	40.1
